Legend:
[1] = molecular target: T1, T4 DNA polymerase (gp43) (Bacteriophage T4) (UniProt P04415); assay: filter; settings: random loop population, 50-fold lower affinity
T1 sequence: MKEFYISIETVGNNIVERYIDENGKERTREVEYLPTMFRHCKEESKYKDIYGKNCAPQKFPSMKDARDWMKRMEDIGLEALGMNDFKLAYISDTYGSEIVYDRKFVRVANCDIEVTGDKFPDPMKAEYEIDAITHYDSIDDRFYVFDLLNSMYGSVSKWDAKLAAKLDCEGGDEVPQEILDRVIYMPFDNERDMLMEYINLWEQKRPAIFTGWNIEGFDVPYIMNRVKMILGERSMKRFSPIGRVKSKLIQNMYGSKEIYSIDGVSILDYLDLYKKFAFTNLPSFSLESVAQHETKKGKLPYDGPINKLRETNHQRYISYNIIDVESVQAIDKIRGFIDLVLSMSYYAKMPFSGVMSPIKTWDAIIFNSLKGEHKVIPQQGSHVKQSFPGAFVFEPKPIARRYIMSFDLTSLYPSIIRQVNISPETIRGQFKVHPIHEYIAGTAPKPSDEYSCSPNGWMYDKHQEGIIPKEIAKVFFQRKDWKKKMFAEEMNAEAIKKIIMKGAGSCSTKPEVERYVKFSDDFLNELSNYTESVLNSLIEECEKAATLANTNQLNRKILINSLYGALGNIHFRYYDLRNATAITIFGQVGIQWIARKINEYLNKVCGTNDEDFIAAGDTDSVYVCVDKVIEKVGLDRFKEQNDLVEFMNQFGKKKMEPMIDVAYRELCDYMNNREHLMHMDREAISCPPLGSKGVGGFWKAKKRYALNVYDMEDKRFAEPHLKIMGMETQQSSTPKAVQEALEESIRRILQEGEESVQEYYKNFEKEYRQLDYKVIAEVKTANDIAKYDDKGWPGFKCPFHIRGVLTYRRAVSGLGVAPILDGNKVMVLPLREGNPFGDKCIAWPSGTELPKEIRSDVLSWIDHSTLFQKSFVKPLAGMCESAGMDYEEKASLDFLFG

[2] = molecular target: T1, T4 DNA polymerase (gp43) (Bacteriophage T4); assay: FP; settings: filter binding; 200 mM KOAc, 50 mM Tris-HCl pH 7.7, 37 C
[3] = molecular target: HIV-1 reverse transcriptase p66/p51 heterodimer (Human immunodeficiency virus 1) (UniProt P04585+P04585); assay: filter; settings: half-maximal binding; 200 mM KOAc, 50 mM Tris-HCl pH 7.7, 10 mM DTT
[4] = molecular target: human tissue plasminogen activator (htPA) (Homo sapiens) (UniProt P00750); assay: filter; settings: 150 mM NaAc, 50 mM Tris-acetate pH 7.5
human tissue plasminogen activator (htPA) (Homo sapiens), sequence (P00750 36-562): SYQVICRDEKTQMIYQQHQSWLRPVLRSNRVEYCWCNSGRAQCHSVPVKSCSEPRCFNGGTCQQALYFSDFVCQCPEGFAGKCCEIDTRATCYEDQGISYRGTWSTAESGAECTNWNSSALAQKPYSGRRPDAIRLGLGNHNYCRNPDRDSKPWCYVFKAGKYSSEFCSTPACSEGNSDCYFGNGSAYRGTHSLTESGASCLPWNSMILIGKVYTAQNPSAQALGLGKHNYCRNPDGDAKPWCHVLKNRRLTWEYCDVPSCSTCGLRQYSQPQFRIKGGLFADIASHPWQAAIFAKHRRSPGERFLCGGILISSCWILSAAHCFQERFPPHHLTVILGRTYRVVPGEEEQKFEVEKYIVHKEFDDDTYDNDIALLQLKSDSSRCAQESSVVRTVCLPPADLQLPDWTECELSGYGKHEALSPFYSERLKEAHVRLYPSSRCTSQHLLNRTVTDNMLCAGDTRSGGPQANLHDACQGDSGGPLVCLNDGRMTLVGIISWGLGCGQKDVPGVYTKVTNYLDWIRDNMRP

## AUAUUCCUUAGUUUAUAGCCCNNNNNNNNAGGCUCUUGAUUG [gene 43 operator RNA random 8N loop pool]
[1]
  Kd: 250 nM

## AUAUUCCUUAGUUUAUAGCCCNNNNNNNNAGGCUCUUGAUUG [gp43 RNA wild-type loop AAUAACUC]
[2]
  Kd: 5 nM

## GGGAGCAUCAGACUUUUAAUCUGACAAUCAAGNNNNNNNNNNNNNNNNNNNNNNNNNNNNNNNNAUCUAUGAAAGAAUUUUAUAUCUCUAUUGAAAC
[3]
  K half: 700 nM

## GGGAGCUCAGAAUAAACGCUCAANNNNNNNNNNNNNNNNNNNNNNNNNNNNNNUUCGACAUGAGGCCCGGAUCCGGC [30N candidate pool]
[4]
  Kd: 70 nM

Reference: patent publication US5670637
